# Reference: US20050069883A1 (priority 2001, published 2005)
# Bridge positions count the residues as written; N and C are the ends. Ends that are not written are not given here.
# How the values were obtained:
# [1] = target: human melanin-concentrating hormone receptor (MCH-1R) (human) (UniProt Q99705); assay: scintillation proximity assay, HEK293-AEQ17/MCH-1R membranes; non-specific binding defined with 500 nM unlabeled MCH
# MCH-1R(Δ316/EGFP) = assay: Functional activation, aequorin assay (mobilization of intracellular calcium); type: cell-based, human; settings: FIG. 6; transiently transfected HEK293-AEQ17 cells, aequorin bioluminescence
# Experimental: Functional activation of MCH-1R […] was measured in an aequorin assay. Proteins were introduced in the stable reporter cell line HEK293-AEQ17 in which mobilization of intracellular calcium can be detected by bioluminescence of jelly fish aequorin upon calcium binding.
# Bioluminescence was detected using a Luminoskan RT luminometer (Labsystems Inc., Gaithersburg, Md.). HEK293-AEQ17 cells were maintained in D-MEM/high glucose medium (Life Technologies, Rockville, Md.) supplemented with 10% fetal bovine serum, […] G418, 25 mM Hepes at 37° C. with 5% CO2 in a humidified atmosphere. […]
# The cells were harvested, washed once in ECB medium and resuspended to 500,000 cells/ml. […] of cell suspension (corresponding to 5×10^4 cells) was then injected into a 96-well test plate, and the integrated light emission was recorded over 30 seconds, in 0.5 second units. 20 μL of lysis buffer (0.1% final Triton X-100 concentration) was then injected and the integrated light emission recorded over 10 seconds, in 0.5 second units. The “fractional response” values for each well were calculated by taking the ratio of the integrated response to the initial challenge to the total integrated luminescence including the Triton X-100 lysis response.
# human melanin-concentrating hormone receptor (MCH-1R) (human), sequence (Q99705 whole entry): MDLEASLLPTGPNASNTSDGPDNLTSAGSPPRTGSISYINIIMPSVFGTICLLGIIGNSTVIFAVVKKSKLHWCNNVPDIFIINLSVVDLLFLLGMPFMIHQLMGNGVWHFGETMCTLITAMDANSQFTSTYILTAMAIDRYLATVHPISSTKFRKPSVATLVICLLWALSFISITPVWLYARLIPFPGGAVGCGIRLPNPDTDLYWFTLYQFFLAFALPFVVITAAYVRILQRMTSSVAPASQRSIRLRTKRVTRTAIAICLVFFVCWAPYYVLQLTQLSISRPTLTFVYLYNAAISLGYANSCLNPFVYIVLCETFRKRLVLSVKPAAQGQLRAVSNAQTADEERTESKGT
specific binding window [1],Substance,functional activation of MCH-1R(Δ316/EGFP) (mobilization of intracellular calcium) (MCH-1R(Δ316/EGFP))
> 6 x (fold),[125I]Phe13Tyr19-MCH (from UniProt P20382 147-165) (peptide),
,"Melanin-concentrating hormone (DFDMLRCMLGRVYRPCWQV; disulfide 7-16 (inferred); ends not checked) [MCH, cyclic 19-amino acid neuropeptide, MCH-1R agonist]",lack of functional activation
